Values quoted from earlier work in PMC6414276.
Where two headings read alike, the source gives them in different places. Blank lines part the entries; values can stand above or below the substance they belong to.

How the values were obtained:
[1] = target: CBP TAZ1 (Mus musculus) (UniProt P45481)
[2] = target: CBP TAZ1 (Mus musculus) (UniProt P45481); remark: listed apart in the source
[3] = target: CBP TAZ1 (Mus musculus) (UniProt P45481); remark: listed apart in the source

Sequence of UniProt P45481 (P45481 340-439): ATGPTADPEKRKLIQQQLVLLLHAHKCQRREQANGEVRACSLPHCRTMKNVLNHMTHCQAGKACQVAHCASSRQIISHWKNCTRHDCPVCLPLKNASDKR

Kd [1]: 0.047 µM
Substance: HIF-1α 790-826 (from UniProt Q16665)

Kd [2]: > 1000 µM
Substance: HIF-1α LPQL-αB motif (from UniProt Q16665)

Kd [3]: 200 µM
Substance: HIF-1α αC motif (from UniProt Q16665)
